Assay results taken from patent US20200147231A1 (NATIONAL CANCER CENTER JAPAN, published 2020).

Legend:
[1] = target: peptide of the epitope site of 102-10; assay: SPR (Biacore T200), peptide immobilised on CM5, antibody as analyte, multi cycle kinetics
[2] = target: T1, insoluble fibrin (fibrinogen from human plasma, immobilised on a plate and treated with thrombin) (human, UniProt P02671 36-629; P02679 27-437); assay: ELISA on the human fibrin plate (coated fibrinogen treated with thrombin), HRP secondary antibody, absorbance at 450 nm
T1 construct: Plasma-derived material; also called fibrin plate; insoluble fibrin plate
T1 sequence 1: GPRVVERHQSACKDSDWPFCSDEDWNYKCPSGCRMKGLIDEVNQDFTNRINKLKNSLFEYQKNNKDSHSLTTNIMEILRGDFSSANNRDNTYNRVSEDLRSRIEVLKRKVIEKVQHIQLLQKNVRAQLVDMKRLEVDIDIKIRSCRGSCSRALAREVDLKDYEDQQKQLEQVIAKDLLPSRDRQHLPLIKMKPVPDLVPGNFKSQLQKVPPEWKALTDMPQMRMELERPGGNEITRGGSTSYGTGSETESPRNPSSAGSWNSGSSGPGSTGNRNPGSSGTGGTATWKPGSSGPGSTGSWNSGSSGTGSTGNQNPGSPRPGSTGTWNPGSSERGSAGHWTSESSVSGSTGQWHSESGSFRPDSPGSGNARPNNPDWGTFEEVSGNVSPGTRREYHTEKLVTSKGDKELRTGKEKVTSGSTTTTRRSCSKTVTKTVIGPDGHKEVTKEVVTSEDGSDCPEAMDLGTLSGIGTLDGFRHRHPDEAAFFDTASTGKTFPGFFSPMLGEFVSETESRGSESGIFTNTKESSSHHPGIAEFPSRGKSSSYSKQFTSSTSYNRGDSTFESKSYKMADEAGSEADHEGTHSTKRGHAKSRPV
T1 sequence 2: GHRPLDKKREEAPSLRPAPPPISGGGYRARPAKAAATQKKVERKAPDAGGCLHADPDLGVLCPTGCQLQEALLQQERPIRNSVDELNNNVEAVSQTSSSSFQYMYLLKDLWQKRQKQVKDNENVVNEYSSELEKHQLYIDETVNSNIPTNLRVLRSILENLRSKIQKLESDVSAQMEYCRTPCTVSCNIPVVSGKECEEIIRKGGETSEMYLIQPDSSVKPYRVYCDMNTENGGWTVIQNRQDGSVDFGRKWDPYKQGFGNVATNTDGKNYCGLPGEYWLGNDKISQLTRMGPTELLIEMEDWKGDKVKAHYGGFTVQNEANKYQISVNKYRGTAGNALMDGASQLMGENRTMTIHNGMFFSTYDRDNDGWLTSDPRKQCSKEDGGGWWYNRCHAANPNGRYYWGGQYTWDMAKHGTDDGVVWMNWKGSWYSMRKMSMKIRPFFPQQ
T1 sequence 3: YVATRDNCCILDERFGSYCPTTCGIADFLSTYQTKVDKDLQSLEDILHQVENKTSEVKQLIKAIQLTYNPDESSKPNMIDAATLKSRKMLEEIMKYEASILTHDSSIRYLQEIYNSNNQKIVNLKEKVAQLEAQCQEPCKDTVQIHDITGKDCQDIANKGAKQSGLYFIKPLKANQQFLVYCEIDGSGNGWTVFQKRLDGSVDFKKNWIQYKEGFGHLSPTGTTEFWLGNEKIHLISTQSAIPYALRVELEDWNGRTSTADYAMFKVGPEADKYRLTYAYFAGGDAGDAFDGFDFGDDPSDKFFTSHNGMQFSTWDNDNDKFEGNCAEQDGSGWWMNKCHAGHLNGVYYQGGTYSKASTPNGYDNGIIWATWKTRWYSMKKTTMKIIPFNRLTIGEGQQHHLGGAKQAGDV
Method: In advance of the ELISA, an antigen-immobilized plate was prepared. Fibrinogen from human plasma (SIGMA) was dissolved in TBS (pH 8.5) to produce a 20 μg/mL fibrinogen solution. The solution was added to a 96-well immunoplate at 50 μL/well and was left to stand at 4° C. overnight to prepare a fibrinogen plate. Thrombin diluted to 0.05 NIH U/mL with a thrombin diluent [7 mM L-cysteine (FUJIFILM Wako Pure Chemical Corporation), 1 mM CaCl₂ (FUJIFILM Wako Pure Chemical Corporation), TBS (pH 8.5)] was added to the fibrinogen plate at 100 μL/well and was incubated at 37° C. for 2 hours to prepare a fibrin plate. The plate on which each antigen was immobilized was washed with 200 μL of PBS-T (PBS, 0.5% (v/v) Tween 20) three times, and 200 μL of a blocking solution [PBS-T, 1% (w/v) BSA] were added to each well, followed by being left to stand at room temperature for 1 hour for blocking. The samples serially diluted with PBS were added to the plate at 50 μL/well and were left to stand at room temperature for 1 hour. The solutions were discarded, and the plate was washed with PBS-T three times. A secondary antibody diluted to 0.3 μg/mL with the blocking solution was added to the plate at 50 μL/well, followed by being left to stand at room temperature for 30 minutes. […]

B1: antibody obtained from clone 99-5 (antibody, V domains shown)
VH: QIQLVQSGPELKKPGETVKISCKASGYTFTNYGMNWVKQAPGKGLKWMGWINTKIGEPTYAEEFKGRFAFSLETSASTAYLQINNLKNEDTATYFCARLLDYWGQGTTLTVSSAKTTPPSV
VL: GDIVLTQSPASLAVSLGQRATISCRASESVDSYGNSFMHWYQQKPGQPPKLLIYRASNLESGIPARFSGSGSRTDFTLTINPVEADDVATYYCQQSNEDPRTFGGGTKLEIKRADAAPTVS
[1]
  Kd: 32.6 nM
  koff: 0.000585 s⁻¹
  kon: 18000 M⁻¹ s⁻¹

B2: antibody obtained from clone 1101 (antibody, V domains shown)
VH: EVQLQQSGTVLARPGASVKMSCKASGFSFTSYWMHWVKQRPGQGLEWIGAIYPGNSDTRNNQKFKGKAKLTAVTSANTAYMELSSLTNEDSAVYYCTRKAHYGNYGFAYWGQGTLVTVSAA
VL: DIQMTQSSSYLSVSLGGRVTITCKASDHINNWLAWYQQKPGNAPRLLISGATSLETGVPSRFSGSGSGKDYTLSITSLQTEDVATYYCQQYWSTPLTFGAGTKLELKRADAAP
[1]
  Kd: 66.8 nM
  koff: 0.00325 s⁻¹
  kon: 93700 M⁻¹ s⁻¹

B3: antibody obtained from clone 99-5 (antibody, V domains shown)
VH: QIQLVQSGPELKKPGETVKISCKASGYTFTNYGMNWVKQAPGKGLKWMGWINTKIGEPTYAEEFKGRFAFSLETSASTAYLQINNLKNEDTATYFCARLLDYWGQGTTLTVSS
VL: DIVLTQSPASLAVSLGQRATISCRASESVDSYGNSFMHWYQQKPGQPPKLLIYRASNLESGIPARFSGSGSRTDFTLTINPVEADDVATYYCQQSNEDPRTFGGGTKLEIKR
notes: also called antibody 99
[2]
  binding result: binds

B4: antibody obtained from clone 1101 (antibody, V domains shown)
VH: EVQLQQSGTVLARPGASVKMSCKASGFSFTSYWMHWVKQRPGQGLEWIGAIYPGNSDTRNNQKFKGKAKLTAVTSANTAYMELSSLTNEDSAVYYCTRKAHYGNYGFAYWGQGTLVTVSA
VL: DIQMTQSSSYLSVSLGGRVTITCKASDHINNWLAWYQQKPGNAPRLLISGATSLETGVPSRFSGSGSGKDYTLSITSLQTEDVATYYCQQYWSTPLTFGAGTKLELKR
notes: also called antibody 1101
[2]
  binding result: binds
